# ± gives the standard deviation of the averaged measurements.
# Columns and labels:
# [1] = tested on: VchCAST RNA-guided transposition machinery (E. coli BL21(DE3) host, lacZ target); assay: relative integration efficiency (T-RL orientation) vs wild-type transposon end (log2 (normalized fold change)); transposon end mutated: right end (5 bp flank + 75 bp right end); higher = more efficient transposition
# Summary of the method: (§1)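 Each barcoded pool, 1549 left-end or 1849 right-end transposon variants in a pUC57 mini-transposon donor, went into E. coli BL21(DE3) with a T7-driven effector plasmid (CRISPR array, tniQ-cas8-cas7-cas6, tnsA-tnsB-tnsC). Plates contained 0.1 mM IPTG and were held at 37°C for 18 h. Input plasmids and genomic integration junctions were PCR-amplified and read by Illumina sequencing, with two biological output replicates and four reference barcodes. Relative integration efficiency is the fold change of output over input barcode abundance, normalised to the reference barcodes and log-transformed.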
# [2] = tested on: VchCAST RNA-guided transposition machinery (E. coli BL21(DE3) host, lacZ target); assay: relative integration efficiency (T-LR orientation) vs wild-type transposon end (log2 (normalized fold change)); transposon end mutated: right end (5 bp flank + 75 bp right end); higher = more efficient transposition
# Summary of the method: as §1
Sequence,relative integration efficiency (log2) [1],relative integration efficiency (log2) [2]
ACATTTGTCGATACAACCATAAAATGATAATTACACCCATAAATTCATAATTATCACCCCCAATTTAACTATAACGCTCTGATCATAGTCAGACCAACATTGCTACGACCCGTATTCGCACCGACAC,-1.83 ± 0.51,1.18 ± 0.19
ACATTTGTCGATACAACCATAAAATGATAATTACACCCATAAATTCATCATTATCACACCCAATTTAACTATAACGCTCTGATCATAGTCAGACCAACATTGCTACGACCCGTATTCGCACCGACAC,-2.26 ± 0.23,1.45 ± 0.14
ACATTTGTCGATACAACCATAAAATGATAATTACACCCATAAATTCATCATTATCACCCCCAATTTAACTATAACGCTCTGATCATAGTCAGACCAACATTGCTACGACCCGTATTCGCACCGACAC,-1.99 ± 0.23,1.54 ± 0.23
ACATTTGTCGATACAACCATAAAATGATAATTACACCCATAAATTGATAATTATCACCCCCAATTTAACTATAACGCTCTGATCATAGTCAGACCAACATTGCTACGACCCGTATTCGCACCGACAC,-0.936 ± 0.32,2.59 ± 0.2
ACATTTGTCGATACAACCATAAAATGATAATTACACCCATAAATTGATCATTATCACACCCAATTTAACTATAACGCTCTGATCATAGTCAGACCAACATTGCTACGACCCGTATTCGCACCGACAC,-1.31 ± 0.23,2.328 ± 0.013
ACATTTGTCGATACAACCATAAAATGATAATTACACCCATAAATTGATCATTATCACCCCCAATTTAACTATAACGCTCTGATCATAGTCAGACCAACATTGCTACGACCCGTATTCGCACCGACAC,-1.31 ± 0.19,2.13 ± 0.24
ACATTTGTCGATACAACCATAAAATGATAATTACCACCCATAAATTGATAATTATCACACCCATTTAACTATAACGCTCTGATCATAGTCAGACCAACATTGCTACGACCCGTATTCGCACCGACAC,-1.12 ± 0.076,1.62 ± 0.092
ACATTTGTCGATACAACCATAAAATGATAATTACCACCCATACATTGATAATTATCACACCCATTTAACTATAACGCTCTGATCATAGTCAGACCAACATTGCTACGACCCGTATTCGCACCGACAC,-2.37 ± 0.32,0.0639 ± 0.32
ACATTTGTCGATACAACCATAAAATGATAATTACCACCCCTAAATTGATAATTATCACACCCATTTAACTATAACGCTCTGATCATAGTCAGACCAACATTGCTACGACCCGTATTCGCACCGACAC,-3.12 ± 0.048,-0.156 ± 0.26
ACATTTGTCGATACAACCATAAAATGATAATTACCACCCCTACATTGATAATTATCACACCCATTTAACTATAACGCTCTGATCATAGTCAGACCAACATTGCTACGACCCGTATTCGCACCGACAC,-3.06 ± 0.23,-0.393 ± 0.058
ACATTTGTCGATACAACCATAAAATGATAATTCACCCATAAATTGATAATTATCACACCCCAATTTAACTATAACGCTCTGATCATAGTCAGACCAACATTGCTACGACCCGTATTCGCACCGACAC,-2.26 ± 0.28,1.05 ± 0.034
ACATTTGTCGATACAACCATAAAATGATAATTCACCCATCAATTGATAATTATCACACCCCAATTTAACTATAACGCTCTGATCATAGTCAGACCAACATTGCTACGACCCGTATTCGCACCGACAC,-3.3 ± 0.52,0.029 ± 0.092
ACATTTGTCGATACAACCCTAAAATGATAATTACACCCATAAATGGATAATTATCACACCCAATTTAACTATAACGCTCTGATCATAGTCAGACCAACATTGCTACGACCCGTATTCGCACCGACAC,-3.17 ± 0.19,-0.544 ± 0.14
ACATTTGTCGATACAACCCTAAAATGATAATTACACCCATAAATGGATAATTATCACCCCCAATTTAACTATAACGCTCTGATCATAGTCAGACCAACATTGCTACGACCCGTATTCGCACCGACAC,-3.44 ± 0.12,-1.16 ± 0.21
ACATTTGTCGATACAACCCTAAAATGATAATTACACCCATAAATGGATCATTATCACACCCAATTTAACTATAACGCTCTGATCATAGTCAGACCAACATTGCTACGACCCGTATTCGCACCGACAC,-4.03 ± 0.13,-1.24 ± 0.25
ACATTTGTCGATACAACCCTAAAATGATAATTACACCCATAAATGGATCATTATCACCCCCAATTTAACTATAACGCTCTGATCATAGTCAGACCAACATTGCTACGACCCGTATTCGCACCGACAC,-4.03 ± 0.42,-1.4 ± 0.051
ACATTTGTCGATACAACCCTAAAATGATAATTACACCCATAAATTCATAATTATCACACCCAATTTAACTATAACGCTCTGATCATAGTCAGACCAACATTGCTACGACCCGTATTCGCACCGACAC,-4.55 ± 0.13,-2.19 ± 0.3
ACATTTGTCGATACAACCCTAAAATGATAATTACACCCATAAATTCATAATTATCACCCCCAATTTAACTATAACGCTCTGATCATAGTCAGACCAACATTGCTACGACCCGTATTCGCACCGACAC,-4.67 ± 0.055,-1.84 ± 0.085
ACATTTGTCGATACAACCCTAAAATGATAATTACACCCATAAATTCATCATTATCACACCCAATTTAACTATAACGCTCTGATCATAGTCAGACCAACATTGCTACGACCCGTATTCGCACCGACAC,-4.888 ± 0.035,-1.06 ± 0.37
ACATTTGTCGATACAACCCTAAAATGATAATTACACCCATAAATTCATCATTATCACCCCCAATTTAACTATAACGCTCTGATCATAGTCAGACCAACATTGCTACGACCCGTATTCGCACCGACAC,-4.56 ± 0.18,-1.16 ± 0.18
ACATTTGTCGATACAACCCTAAAATGATAATTACACCCATAAATTGATAATTATCACACCCAATTTAACTATAACGCTCTGATCATAGTCAGACCAACATTGCTACGACCCGTATTCGCACCGACAC,-2.1 ± 0.33,1.04 ± 0.3
ACATTTGTCGATACAACCCTAAAATGATAATTACACCCATAAATTGATAATTATCACCCCCAATTTAACTATAACGCTCTGATCATAGTCAGACCAACATTGCTACGACCCGTATTCGCACCGACAC,-2.33 ± 0.4,0.88 ± 0.35
ACATTTGTCGATACAACCCTAAAATGATAATTACACCCATAAATTGATCATTATCACACCCAATTTAACTATAACGCTCTGATCATAGTCAGACCAACATTGCTACGACCCGTATTCGCACCGACAC,-3 ± 0.31,0.178 ± 0.16
ACATTTGTCGATACAACCCTAAAATGATAATTACACCCATAAATTGATCATTATCACCCCCAATTTAACTATAACGCTCTGATCATAGTCAGACCAACATTGCTACGACCCGTATTCGCACCGACAC,-2.5 ± 0.47,0.684 ± 0.37
ACATTTGTCGATCCAACCATAAAATGATAATTACACCCATAAATGGATAATTATCACACCCAATTTAACTATAACGCTCTGATCATAGTCAGACCAACATTGCTACGACCCGTATTCGCACCGACAC,-1.4 ± 0.23,1.38 ± 0.094
ACATTTGTCGATCCAACCATAAAATGATAATTACACCCATAAATGGATCATTATCACACCCAATTTAACTATAACGCTCTGATCATAGTCAGACCAACATTGCTACGACCCGTATTCGCACCGACAC,-2.08 ± 0.19,0.888 ± 0.17
ACATTTGTCGATCCAACCATAAAATGATAATTACACCCATAAATTCATAATTATCACACCCAATTTAACTATAACGCTCTGATCATAGTCAGACCAACATTGCTACGACCCGTATTCGCACCGACAC,-2.45 ± 0.51,0.641 ± 0.68
